Laboratory results reported in the supplement of paper PMC11246515.
± gives the standard deviation of the averaged measurements.

Assay: total protein half-life in vivo (active degradation + dilution); higher = more stable protein
[1] = E. coli NCM3722 delta-clpP delta-lon delta-hslV, growth: N-lim chemostat, doubling time 6 h
[2] = E. coli NCM3722 delta-clpP, growth: N-lim chemostat, doubling time 6 h
[3] = E. coli NCM3722 delta-hslV, growth: N-lim chemostat, doubling time 6 h
[4] = E. coli NCM3722 delta-lon, growth: N-lim chemostat, doubling time 6 h
[5] = E. coli NCM3722 delta-smpB, growth: N-lim chemostat, doubling time 6 h
[6] = wild type E. coli NCM3722, growth: C-lim chemostat, doubling time 3 h
[7] = wild type E. coli NCM3722, growth: C-lim chemostat, doubling time 6 h
[8] = wild type E. coli NCM3722, growth: C-lim chemostat, doubling time 12 h
[9] = wild type E. coli NCM3722, growth: N-lim chemostat, doubling time 6 h
[10] = wild type E. coli NCM3722, growth: N-lim chemostat, doubling time 12 h
[11] = wild type E. coli NCM3722, growth: P-lim chemostat, doubling time 6 h
[12] = wild type E. coli NCM3722, growth: P-lim chemostat, doubling time 12 h

| Sequence | total protein half-life in vivo [1] [h] | total protein half-life in vivo [2] [h] | total protein half-life in vivo [3] [h] | total protein half-life in vivo [4] [h] | total protein half-life in vivo [5] [h] | total protein half-life in vivo [6] [h] | total protein half-life in vivo [7] [h] | total protein half-life in vivo [8] [h] | total protein half-life in vivo [9] [h] | total protein half-life in vivo [10] [h] | total protein half-life in vivo [11] [h] | total protein half-life in vivo [12] [h] |
| --- | --- | --- | --- | --- | --- | --- | --- | --- | --- | --- | --- | --- |
| MSVIAQAGAKGRQLHKFGGSSLADVKCYLRVAGIMAEYSQPDDMMVVSAAGSTTNQLINWLKLSQTDRLSAHQVQQTLRRYQCDLISGLLPAEEADSLISAFVSDLERLAALLDSGINDAVYAEVVGHGEVWSARLMSAVLNQQGLPAAWLDAREFLRAERAAQPQVDEGLSYPLLQQLLVQHPGKRLVVTGFISRNNAGETVLLGRNGSDYSATQIGALAGVSRVTIWSDVAGVYSADPRKVKDACLLPLLRLDEASELARLAAPVLHARTLQPVSGSEIDLQLRCSYTPDQGSTRIERVLASGTGARIVTSHDDVCLIEFQVPASQDFKLAHKEIDQILKRAQVRPLAVGVHNDRQLLQFCYTSEVADSALKILDEAGLPGELRLRQGLALVAMVGAGVTRNPLHCHRFWQQLKGQPVEFTWQSDDGISLVAVLRTGPTESLIQGLHQSVFRAEKRIGLVLFGKGNIGSRWLELFAREQSTLSARTGFEFVLAGVVDSRRSLLSYDGLDASRALAFFNDEAVEQDEESLFLWMRAHPYDDLVVLDVTASQQLADQYLDFASHGFHVISANKLAGASDSNKYRQIHDAFEKTGRHWLYNATVGAGLPINHTVRDLIDSGDTILSISGIFSGTLSWLFLQFDGSVPFTELVDQAWQQGLTEPDPRDDLSGKDVMRKLVILAREAGYNIEPDQVRVESLVPAHCEGGSIDHFFENGDELNEQMVQRLEAAREMGLVLRYVARFDANGKARVGVEAVREDHPLASLLPCDNVFAIESRWYRDNPLVIRGPGAGRDVTAGAIQSDINRLAQLL | 3.69 ± 0.6 | 2.74 ± 0.12 | 2.95 ± 0.31 | 3.25 ± 0.14 | 3.01 ± 0.38 | 3.08 ± 0.22 | 4.89 ± 0.2 | 9.3 ± 0.67 | 2.79 ± 0.053 | 4.57 ± 0.19 | 6 ± 0.21 | 11.1 ± 0.36 |
| MSVMLQSLNNIRTLRAMAREFSIDVLEEMLEKFRVVTKERREEEEQQQRELAERQEKISTWLELMKADGINPEELLGNSSAAAPRAGKKRQPRPAKYKFTDVNGETKTWTGQGRTPKPIAQALAEGKSLDDFLI [P0ACG1] | 7.04 ± 1.3 | 6.38 ± 0.2 | 6.63 ± 0.19 | 7.2 ± 0.27 | 5.86 ± 0.72 | 3 ± 0.032 | 5.941 ± 0.033 | 8.33 ± 0.14 | 4.94 ± 0.73 | 12 ± 4 | 5.04 ± 1.5 | 11 ± 0.95 |
| MSVRNIFADESHDIYTVRTHADGPDGELPLTAEMLINRPSGDLFGMTMNAGMGWSPDELDRDGILLLSTLGGLRGADGKPVALALHQGHYELDIQMKAAAEVIKANHALPYAVYVSDPCDGRTQGTTGMFDSLPYRNDASMVMRRLIRSLPDAKAVIGVASCDKGLPATMMALAAQHNIATVLVPGGATLPAKDGEDNGKVQTIGARFANGELSLQDARRAGCKACASSGGGCQFLGTAGTSQVVAEGLGLAIPHSALAPSGEPVWREIARASARAALNLSQKGITTREILTDKAIENAMTVHAAFGGSTNLLLHIPAIAHQAGCHIPTVDDWIRINKRVPRLVSVLPNGPVYHPTVNAFMAGGVPEVMLHLRSLGLLHEDVMTVTGSTLKENLDWWEHSERRQRFKQLLLDQEQINADEVIMSPQQAKARGLTSTITFPVGNIAPEGSVIKSTAIDPSMIDEQGIYYHKGVAKVYLSEKSAIYDIKHDKIKAGDILVIIGVGPSGTGMEETYQVTSALKHLSYGKHVSLITDARFSGVSTGACIGHVGPEALAGGPIGKLRTGDLIEIKIDCRELHGEVNFLGTRSDEQLPSQEEATAILNARPSHQDLLPDPELPDDTRLWAMLQAVSGGTWTGCIYDVNKIGAALRDFMNKN | 4.08 ± 0.67 | 3.14 | 3.82 ± 0.38 | 4.55 ± 0.14 | 3.33 ± 0.14 | – | 5.0317 ± 0.00062 | 8.896 ± 0.017 | 3.48 ± 0.52 | 4.88 ± 1.1 | 5.43 ± 0.13 | 10.1 ± 0.58 |
| MSVTIQGNTSTVISNNSAPEGTSEIAKITRQIQVLTEKLGKISSEEGMTTQQKKEMAALVQKQIESLWAQLEQLLRQQAEKKNEDATVQPDKKEEKKDDTNTAGTIDIYV | – | – | – | – | – | 0.426 | – | – | – | – | – | – |
| MSWISPELIEILLTILKAVVILLVVVTCGAFMSFGERRLLGLFQNRYGPNRVGWGGSLQLVADMIKMFFKEDWIPKFSDRVIFTLAPMIAFTSLLLAFAIVPVSPGWVVADLNIGILFFLMMAGLAVYAVLFAGWSSNNKYSLLGAMRASAQTLSYEVFLGLSLMGVVAQAGSFNMTDIVNSQAHVWNVIPQFFGFITFAIAGVAVCHRHPFDQPEAEQELADGYHIEYSGMKFGLFFVGEYIGIVTISALMVTLFFGGWQGPLLPPFIWFALKTAFFMMMFILIRASLPRPRYDQVMSFGWKICLPLTLINLLVTAAVILWQAQ [P0AFD4] | – | 6.49 ± 0.27 | 5.73 ± 0.34 | 6.09 ± 0.59 | 6.41 ± 1.4 | – | 6.75 ± 1.2 | 13.8 ± 2 | 6.53 ± 0.46 | 9.26 ± 2 | 6.237 ± 0.017 | 13.1 ± 3 |
| MSWLKEVIGTEKAVIAMCHLRALPGDPSFDAQLGMNWVIDKAWDDLMALQNGGVDAVMFSNEFSLPYLTKVRPETTAAMARIIGQLMSDIRIPFGVNVLWDPVASFDLAMATGAKFIREIFTGAYASDFGVWDTNVGETIRHQHRIGAGEVKTLFNIVPEAAVYLGNRDICSIAKSTVFNNHPDALCVSGLTAGTRTDSALLKRVKETVPDTVVLANTGVCLENVEEQLSIADGCVTATTFKKDGVFANFVDQARVSQFMEKVHHIRR | 4.34 ± 0.67 | – | – | – | – | 1.07 ± 0.83 | 5.65 ± 0.48 | 8.62 ± 0.11 | – | – | – | 3.45 |
